Assay results taken from the supplement of paper PMC9112550, “Optimization of the antimicrobial peptide Bac7 by deep mutational scanning” (BMC Biology, 2022).

Tested on: Escherichia coli TOP10
Assay: shrunken log2 fold change of peptide-encoding DNA abundance (4.5 h post-induction vs induction); higher = less antimicrobial activity (less host growth inhibition)
Settings: time post-induction: 4.5 h; library: site-saturation at positions 5, 18, 19, 20
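Further: peptides expressed intracellularly from a pBAD plasmid library in pooled LB shake-flask culture, induced with 0.3% L-arabinose, DNA abundance read by NGS, three biological replicates, DESeq2 with apeglm shrinkage.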

Sequence	shrunken log2 fold change
RRIRERPPRLPRPRPRPNCYPRP	-0.342
RRIRERPPRLPRPRPRPNDFPRP	-0.0161
RRIRERPPRLPRPRPRPNDIPRP	0.0203
RRIRERPPRLPRPRPRPNDTPRP	-0.348
RRIRERPPRLPRPRPRPNEFPRP	-0.0497
RRIRERPPRLPRPRPRPNFSPRP	-0.114
RRIRERPPRLPRPRPRPNGAPRP	0.0556
RRIRERPPRLPRPRPRPNHAPRP	-0.239
RRIRERPPRLPRPRPRPNHPPRP	-0.278
RRIRERPPRLPRPRPRPNIFPRP	-0.302
RRIRERPPRLPRPRPRPNKPPRP	-0.0937
RRIRERPPRLPRPRPRPNMFPRP	-0.615
RRIRERPPRLPRPRPRPNMPPRP	-0.706
RRIRERPPRLPRPRPRPNNHPRP	-0.933
RRIRERPPRLPRPRPRPNNPPRP	-0.736
RRIRERPPRLPRPRPRPNPNPRP	-0.365
RRIRERPPRLPRPRPRPNPWPRP	-0.0758
RRIRERPPRLPRPRPRPNQRPRP	-0.0506
RRIRERPPRLPRPRPRPNRSPRP	-0.0779
RRIRERPPRLPRPRPRPNSCPRP	-0.128
RRIRERPPRLPRPRPRPNTYPRP	-0.667
RRIRERPPRLPRPRPRPNVFPRP	-0.189
RRIRERPPRLPRPRPRPNVWPRP	0.133
RRIRERPPRLPRPRPRPNYSPRP	-0.63
RRIRERPPRLPRPRPRPPCDPRP	-0.187

Sequence	shrunken log2 fold change
RRIRERPPRLPRPRPRPPFSPRP	-0.241
RRIRERPPRLPRPRPRPPHEPRP	0.731
RRIRERPPRLPRPRPRPPIFPRP	-0.0515
RRIRERPPRLPRPRPRPPILPRP	-0.471
RRIRERPPRLPRPRPRPPISPRP	0.0892
RRIRERPPRLPRPRPRPPLAPRP	0.433
RRIRERPPRLPRPRPRPPMIPRP	-0.0526
RRIRERPPRLPRPRPRPPPLPRP	0.222
RRIRERPPRLPRPRPRPPPVPRP	0.261
RRIRERPPRLPRPRPRPPRNPRP	0.0296
RRIRERPPRLPRPRPRPPSRPRP	0.577
RRIRERPPRLPRPRPRPPSTPRP	-0.136
RRIRERPPRLPRPRPRPPTRPRP	0.254
RRIRERPPRLPRPRPRPPVEPRP	0.268
RRIRERPPRLPRPRPRPPYTPRP	-0.176
RRIRERPPRLPRPRPRPQAEPRP	-0.0297
RRIRERPPRLPRPRPRPQANPRP	-0.0396
RRIRERPPRLPRPRPRPQCHPRP	-0.449
RRIRERPPRLPRPRPRPQDAPRP	0.0745
RRIRERPPRLPRPRPRPQFDPRP	-0.111
RRIRERPPRLPRPRPRPQFIPRP	-0.014
RRIRERPPRLPRPRPRPQHGPRP	-0.102
RRIRERPPRLPRPRPRPQHHPRP	-0.771
RRIRERPPRLPRPRPRPQICPRP	0.172
RRIRERPPRLPRPRPRPQKCPRP	-0.202

Sequence	shrunken log2 fold change
RRIRERPPRLPRPRPRPQKDPRP	-0.298
RRIRERPPRLPRPRPRPQKYPRP	-1.15
RRIRERPPRLPRPRPRPQNGPRP	-0.0634
RRIRERPPRLPRPRPRPQPHPRP	-0.261
RRIRERPPRLPRPRPRPQPKPRP	-0.077
RRIRERPPRLPRPRPRPQPQPRP	-0.0713
RRIRERPPRLPRPRPRPQRWPRP	0.117
RRIRERPPRLPRPRPRPQSHPRP	-0.268
RRIRERPPRLPRPRPRPQSWPRP	0.104
RRIRERPPRLPRPRPRPQTDPRP	-0.323
RRIRERPPRLPRPRPRPQTHPRP	-0.359
RRIRERPPRLPRPRPRPQTIPRP	-0.378
RRIRERPPRLPRPRPRPQTYPRP	-1.1
RRIRERPPRLPRPRPRPQVSPRP	-0.0262
RRIRERPPRLPRPRPRPQWDPRP	0.0698
RRIRERPPRLPRPRPRPQYCPRP	-0.0302
RRIRERPPRLPRPRPRPQYMPRP	-0.213
RRIRERPPRLPRPRPRPRARPRP	0.233
RRIRERPPRLPRPRPRPRCCPRP	-0.234
RRIRERPPRLPRPRPRPRCKPRP	-0.0657
RRIRERPPRLPRPRPRPRFAPRP	0.0577
RRIRERPPRLPRPRPRPRGAPRP	0.59
RRIRERPPRLPRPRPRPRGYPRP	-0.1
RRIRERPPRLPRPRPRPRHPPRP	-0.289
RRIRERPPRLPRPRPRPRHSPRP	-0.137

Sequence	shrunken log2 fold change
RRIRERPPRLPRPRPRPRINPRP	-0.427
RRIRERPPRLPRPRPRPRIRPRP	0.0747
RRIRERPPRLPRPRPRPRLAPRP	0.269
RRIRERPPRLPRPRPRPRMEPRP	-0.00684
RRIRERPPRLPRPRPRPRPCPRP	-0.0205
RRIRERPPRLPRPRPRPRRGPRP	0.142
RRIRERPPRLPRPRPRPRSIPRP	0.0163
RRIRERPPRLPRPRPRPRTWPRP	-0.149
RRIRERPPRLPRPRPRPRVFPRP	0.138
RRIRERPPRLPRPRPRPRVNPRP	-0.157
RRIRERPPRLPRPRPRPRVPPRP	0.425
RRIRERPPRLPRPRPRPRVQPRP	0.00573
RRIRERPPRLPRPRPRPRVSPRP	0.0184
RRIRERPPRLPRPRPRPRWCPRP	0.0485
RRIRERPPRLPRPRPRPRWHPRP	0.0135
RRIRERPPRLPRPRPRPRYFPRP	-0.54
RRIRERPPRLPRPRPRPSAWPRP	0.0177
RRIRERPPRLPRPRPRPSCIPRP	-0.455
RRIRERPPRLPRPRPRPSCRPRP	-0.249
RRIRERPPRLPRPRPRPSDAPRP	-0.0474
RRIRERPPRLPRPRPRPSEAPRP	0.134
RRIRERPPRLPRPRPRPSGKPRP	-0.119
RRIRERPPRLPRPRPRPSHSPRP	-1.37
RRIRERPPRLPRPRPRPSHTPRP	-0.248
RRIRERPPRLPRPRPRPSITPRP	-1.36

Sequence	shrunken log2 fold change
RRIRERPPRLPRPRPRPSIWPRP	-0.0411
RRIRERPPRLPRPRPRPSKRPRP	-0.00769
RRIRERPPRLPRPRPRPSLLPRP	-0.208
RRIRERPPRLPRPRPRPSQEPRP	-0.0844
RRIRERPPRLPRPRPRPSRSPRP	0.116
RRIRERPPRLPRPRPRPSSCPRP	-0.0232
RRIRERPPRLPRPRPRPSSLPRP	-0.223
RRIRERPPRLPRPRPRPSVCPRP	-0.0246
RRIRERPPRLPRPRPRPSWAPRP	-0.24
RRIRERPPRLPRPRPRPSYPPRP	-0.877
RRIRERPPRLPRPRPRPSYQPRP	-0.469
RRIRERPPRLPRPRPRPTDAPRP	0.0786
RRIRERPPRLPRPRPRPTEFPRP	0.000688
RRIRERPPRLPRPRPRPTEQPRP	-0.00926
RRIRERPPRLPRPRPRPTGLPRP	0.235
RRIRERPPRLPRPRPRPTGRPRP	-0.146
RRIRERPPRLPRPRPRPTGSPRP	-0.211
RRIRERPPRLPRPRPRPTICPRP	-0.342
RRIRERPPRLPRPRPRPTIQPRP	-0.0576
RRIRERPPRLPRPRPRPTKDPRP	-0.239
RRIRERPPRLPRPRPRPTNYPRP	-0.068
RRIRERPPRLPRPRPRPTRHPRP	0.157
RRIRERPPRLPRPRPRPTRRPRP	0.059
RRIRERPPRLPRPRPRPTTCPRP	0.0164
RRIRERPPRLPRPRPRPTTKPRP	0.0648

Sequence	shrunken log2 fold change
RRIRERPPRLPRPRPRPTTVPRP	-0.147
RRIRERPPRLPRPRPRPTVQPRP	-0.157
RRIRERPPRLPRPRPRPTWAPRP	0.115
RRIRERPPRLPRPRPRPTWCPRP	3.3
RRIRERPPRLPRPRPRPVAHPRP	0.0475
RRIRERPPRLPRPRPRPVAIPRP	-0.121
RRIRERPPRLPRPRPRPVAKPRP	0.197
RRIRERPPRLPRPRPRPVASPRP	-0.0471
RRIRERPPRLPRPRPRPVDCPRP	0.0769
RRIRERPPRLPRPRPRPVEDPRP	0.0178
RRIRERPPRLPRPRPRPVEFPRP	-0.309
RRIRERPPRLPRPRPRPVGEPRP	-0.0892
RRIRERPPRLPRPRPRPVGYPRP	0.161
RRIRERPPRLPRPRPRPVHIPRP	-0.202
RRIRERPPRLPRPRPRPVHKPRP	-0.581
RRIRERPPRLPRPRPRPVIPPRP	-0.23
RRIRERPPRLPRPRPRPVMEPRP	-0.0566
RRIRERPPRLPRPRPRPVNIPRP	-0.0402
RRIRERPPRLPRPRPRPVRQPRP	0.412
RRIRERPPRLPRPRPRPVRVPRP	0.247
RRIRERPPRLPRPRPRPVSIPRP	-1.57
RRIRERPPRLPRPRPRPVSLPRP	-0.013
RRIRERPPRLPRPRPRPVTEPRP	-0.255
RRIRERPPRLPRPRPRPVVRPRP	0.0531
RRIRERPPRLPRPRPRPVWAPRP	0.0658
